Test results taken from patent publication US20140342369A1.

Experiments:
[1] = target: Guanine nucleotide-binding protein G(i) subunit alpha-2 (Gnai2) (mouse) (UniProt P08752); assay: anti-HA pulldown of tagged Gpr107 from whole cell lysate, mass spectrometry of eluted proteins
[2] = target: Solute carrier family 2, facilitated glucose transporter member 3 (Slc2a3) (mouse) (UniProt P32037); assay: as above
Calnexin (Canx1) (mouse) [3] = target: Calnexin (Canx1) (mouse) (UniProt P35564); assay: as above
[4] = target: Neurabin-2, Spinophilin (Ppp1r9b) (mouse) (UniProt Q6R891); assay: as above
[5] = target: Neurabin-1 (Ppp1r9a) (mouse) (UniProt Q7TN74); assay: as above
[6] = target: LYRIC (Mtdh, Metadherin) (mouse) (UniProt Q80WJ7); assay: as above
[7] = target: Dolichyl-diphosphooligosaccharide--protein glycosyltransferase SU 1 (Rpn1) (mouse) (UniProt Q91YQ5); assay: as above
[8] = target: Guanine nucleotide-binding protein G(i) subunit alpha-2 (Gnai2) (mouse) (UniProt P08752); assay: control pulldown (background; control not described), mass spectrometry of eluted proteins
[9] = target: Solute carrier family 2, facilitated glucose transporter member 3 (Slc2a3) (mouse) (UniProt P32037); assay: as above
Calnexin (Canx1) (mouse) [10] = target: Calnexin (Canx1) (mouse) (UniProt P35564); assay: as above
[11] = target: Neurabin-2, Spinophilin (Ppp1r9b) (mouse) (UniProt Q6R891); assay: as above
[12] = target: Neurabin-1 (Ppp1r9a) (mouse) (UniProt Q7TN74); assay: as above
[13] = target: LYRIC (Mtdh, Metadherin) (mouse) (UniProt Q80WJ7); assay: as above
[14] = target: Dolichyl-diphosphooligosaccharide--protein glycosyltransferase SU 1 (Rpn1) (mouse) (UniProt Q91YQ5); assay: as above

Chain of UniProt Q80WJ7 (Q80WJ7 whole entry): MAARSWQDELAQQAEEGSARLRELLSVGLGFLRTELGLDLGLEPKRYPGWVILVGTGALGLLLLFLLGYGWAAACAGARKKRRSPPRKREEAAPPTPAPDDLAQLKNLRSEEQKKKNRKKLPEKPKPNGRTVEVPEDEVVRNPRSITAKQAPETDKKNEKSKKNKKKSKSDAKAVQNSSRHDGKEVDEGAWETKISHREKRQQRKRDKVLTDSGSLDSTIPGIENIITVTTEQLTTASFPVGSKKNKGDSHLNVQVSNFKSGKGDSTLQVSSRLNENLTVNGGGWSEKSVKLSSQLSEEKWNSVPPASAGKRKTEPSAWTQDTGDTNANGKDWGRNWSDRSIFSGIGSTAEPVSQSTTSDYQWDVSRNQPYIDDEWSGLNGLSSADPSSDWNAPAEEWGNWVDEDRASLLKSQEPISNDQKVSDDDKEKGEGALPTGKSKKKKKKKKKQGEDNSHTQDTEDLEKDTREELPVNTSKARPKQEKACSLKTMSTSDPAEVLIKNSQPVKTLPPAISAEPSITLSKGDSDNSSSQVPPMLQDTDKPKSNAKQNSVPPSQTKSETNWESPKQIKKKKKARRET
Chain of UniProt P35564 (P35564 21-591 limits assumed): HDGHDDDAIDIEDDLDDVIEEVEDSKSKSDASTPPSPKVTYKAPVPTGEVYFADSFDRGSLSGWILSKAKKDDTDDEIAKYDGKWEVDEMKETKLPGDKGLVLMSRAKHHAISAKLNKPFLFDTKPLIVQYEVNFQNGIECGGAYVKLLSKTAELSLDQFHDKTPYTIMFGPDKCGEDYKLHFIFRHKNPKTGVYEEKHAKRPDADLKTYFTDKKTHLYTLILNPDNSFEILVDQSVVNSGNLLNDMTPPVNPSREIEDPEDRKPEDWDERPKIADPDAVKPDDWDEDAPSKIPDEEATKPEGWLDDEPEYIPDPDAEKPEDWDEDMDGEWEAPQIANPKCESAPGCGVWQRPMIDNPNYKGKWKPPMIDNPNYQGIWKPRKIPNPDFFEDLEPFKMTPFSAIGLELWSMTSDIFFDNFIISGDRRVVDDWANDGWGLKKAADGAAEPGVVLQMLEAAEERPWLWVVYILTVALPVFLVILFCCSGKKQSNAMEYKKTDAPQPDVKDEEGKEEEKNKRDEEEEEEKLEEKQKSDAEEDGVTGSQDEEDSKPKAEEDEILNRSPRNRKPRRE
Chain of UniProt P08752 (P08752 2-355 limits assumed): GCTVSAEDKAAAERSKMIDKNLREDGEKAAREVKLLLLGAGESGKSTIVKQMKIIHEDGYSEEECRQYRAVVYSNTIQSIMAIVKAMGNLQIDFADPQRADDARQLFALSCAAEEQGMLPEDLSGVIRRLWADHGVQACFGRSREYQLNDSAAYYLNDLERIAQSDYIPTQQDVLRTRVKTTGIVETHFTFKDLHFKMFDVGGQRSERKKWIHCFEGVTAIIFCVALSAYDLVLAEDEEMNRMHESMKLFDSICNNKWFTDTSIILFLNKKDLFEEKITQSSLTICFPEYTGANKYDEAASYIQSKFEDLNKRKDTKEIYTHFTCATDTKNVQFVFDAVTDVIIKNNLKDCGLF
Chain of UniProt Q6R891 (Q6R891 whole entry): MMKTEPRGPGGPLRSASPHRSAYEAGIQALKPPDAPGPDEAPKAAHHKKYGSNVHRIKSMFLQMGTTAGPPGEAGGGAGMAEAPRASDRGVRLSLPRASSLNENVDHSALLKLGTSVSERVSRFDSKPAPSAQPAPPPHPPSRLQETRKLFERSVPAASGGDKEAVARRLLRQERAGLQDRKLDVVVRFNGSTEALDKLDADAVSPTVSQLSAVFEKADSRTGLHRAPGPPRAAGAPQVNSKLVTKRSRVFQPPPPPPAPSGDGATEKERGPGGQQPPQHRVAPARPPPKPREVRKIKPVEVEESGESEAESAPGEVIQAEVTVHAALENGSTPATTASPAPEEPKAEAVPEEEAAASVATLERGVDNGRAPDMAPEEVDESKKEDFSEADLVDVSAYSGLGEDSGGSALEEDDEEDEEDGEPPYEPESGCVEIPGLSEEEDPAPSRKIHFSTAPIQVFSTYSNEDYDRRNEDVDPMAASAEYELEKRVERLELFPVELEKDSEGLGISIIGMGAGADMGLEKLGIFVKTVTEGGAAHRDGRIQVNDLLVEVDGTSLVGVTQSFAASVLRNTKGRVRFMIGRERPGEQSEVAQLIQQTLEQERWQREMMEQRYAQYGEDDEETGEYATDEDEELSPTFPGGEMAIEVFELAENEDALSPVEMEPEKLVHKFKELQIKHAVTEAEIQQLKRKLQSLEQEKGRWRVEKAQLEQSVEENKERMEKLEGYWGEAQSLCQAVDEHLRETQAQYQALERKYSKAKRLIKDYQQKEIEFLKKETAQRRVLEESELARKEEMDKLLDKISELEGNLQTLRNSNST
Chain of UniProt P32037 (P32037 whole entry): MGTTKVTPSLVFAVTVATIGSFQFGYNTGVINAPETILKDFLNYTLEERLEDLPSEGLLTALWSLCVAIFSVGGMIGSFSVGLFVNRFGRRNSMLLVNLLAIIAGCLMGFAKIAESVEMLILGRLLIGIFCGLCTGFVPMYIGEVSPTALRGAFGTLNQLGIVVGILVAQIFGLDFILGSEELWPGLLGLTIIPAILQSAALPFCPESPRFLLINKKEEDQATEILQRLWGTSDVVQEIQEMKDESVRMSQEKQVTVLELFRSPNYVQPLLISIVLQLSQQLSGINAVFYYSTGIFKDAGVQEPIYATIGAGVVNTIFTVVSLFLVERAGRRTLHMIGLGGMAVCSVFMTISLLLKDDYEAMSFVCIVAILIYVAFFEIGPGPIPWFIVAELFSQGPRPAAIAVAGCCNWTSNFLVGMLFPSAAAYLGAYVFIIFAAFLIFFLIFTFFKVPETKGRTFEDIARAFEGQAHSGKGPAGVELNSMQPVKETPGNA
Chain of UniProt Q7TN74 (Q7TN74 entry or part of it): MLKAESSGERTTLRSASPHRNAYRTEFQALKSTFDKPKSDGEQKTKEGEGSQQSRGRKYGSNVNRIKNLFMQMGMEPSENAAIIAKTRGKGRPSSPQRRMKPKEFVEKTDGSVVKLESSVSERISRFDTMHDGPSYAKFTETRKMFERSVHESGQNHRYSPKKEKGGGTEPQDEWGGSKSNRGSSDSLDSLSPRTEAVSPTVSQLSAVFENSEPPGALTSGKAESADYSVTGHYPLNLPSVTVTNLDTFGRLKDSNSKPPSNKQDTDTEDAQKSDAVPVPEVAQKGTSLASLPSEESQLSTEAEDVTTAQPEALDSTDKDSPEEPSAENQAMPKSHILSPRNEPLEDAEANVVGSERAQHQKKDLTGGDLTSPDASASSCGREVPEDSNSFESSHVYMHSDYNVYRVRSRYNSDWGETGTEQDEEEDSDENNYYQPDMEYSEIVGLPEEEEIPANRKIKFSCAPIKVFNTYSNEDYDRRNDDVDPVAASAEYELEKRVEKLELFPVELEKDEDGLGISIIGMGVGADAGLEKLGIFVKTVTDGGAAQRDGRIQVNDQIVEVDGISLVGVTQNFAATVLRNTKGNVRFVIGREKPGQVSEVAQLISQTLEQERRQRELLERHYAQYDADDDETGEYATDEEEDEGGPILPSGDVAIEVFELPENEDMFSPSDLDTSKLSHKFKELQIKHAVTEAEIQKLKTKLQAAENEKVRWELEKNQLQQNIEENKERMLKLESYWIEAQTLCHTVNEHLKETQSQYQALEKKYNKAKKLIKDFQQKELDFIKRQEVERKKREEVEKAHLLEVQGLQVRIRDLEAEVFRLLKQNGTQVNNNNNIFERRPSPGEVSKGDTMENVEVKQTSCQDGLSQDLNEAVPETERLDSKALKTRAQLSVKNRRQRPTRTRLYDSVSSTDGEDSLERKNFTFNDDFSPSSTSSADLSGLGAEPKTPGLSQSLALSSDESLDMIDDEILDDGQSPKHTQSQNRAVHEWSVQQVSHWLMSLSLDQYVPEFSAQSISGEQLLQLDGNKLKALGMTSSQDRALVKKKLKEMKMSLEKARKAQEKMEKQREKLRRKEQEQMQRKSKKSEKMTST
Chain of UniProt Q91YQ5 (Q91YQ5 26-608 limits assumed): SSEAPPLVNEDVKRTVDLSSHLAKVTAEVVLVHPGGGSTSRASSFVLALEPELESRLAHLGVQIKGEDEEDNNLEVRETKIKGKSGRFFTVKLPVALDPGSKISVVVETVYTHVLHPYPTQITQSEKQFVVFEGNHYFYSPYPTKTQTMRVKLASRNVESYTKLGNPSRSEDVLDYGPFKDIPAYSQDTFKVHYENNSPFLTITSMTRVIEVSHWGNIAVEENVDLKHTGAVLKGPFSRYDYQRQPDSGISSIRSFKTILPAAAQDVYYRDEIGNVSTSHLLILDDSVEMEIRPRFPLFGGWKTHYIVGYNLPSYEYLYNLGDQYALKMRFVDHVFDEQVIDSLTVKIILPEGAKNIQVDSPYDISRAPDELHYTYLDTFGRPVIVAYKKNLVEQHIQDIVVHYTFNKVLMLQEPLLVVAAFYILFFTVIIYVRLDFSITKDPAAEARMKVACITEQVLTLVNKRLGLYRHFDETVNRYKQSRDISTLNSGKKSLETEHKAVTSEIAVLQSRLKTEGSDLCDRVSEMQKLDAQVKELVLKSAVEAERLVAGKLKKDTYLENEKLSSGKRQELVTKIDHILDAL

**Q.** Which results are given for “C-terminally tagged (mCherry, Ha, myc) version of Gpr107 (G protein coupled receptor 107) (from UniProt Q8BUV8 34-551)”?
**A.** peptides sample [1]: 19 peptides; peptides sample [2]: 5 peptides; peptides sample (Calnexin (Canx1) (mouse) [3]): 7 peptides; peptides sample [4]: 136 peptides; peptides sample [5]: 13 peptides; peptides sample [6]: 46 peptides; peptides sample [7]: 8 peptides; peptides control [8]: 0 peptides; peptides control [9]: 0 peptides; peptides control (Calnexin (Canx1) (mouse) [10]): 3 peptides; peptides control [11]: 8 peptides; peptides control [12]: 0 peptides; peptides control [13]: 0 peptides; peptides control [14]: 3 peptides
